Reference: PMC5591277

Tests used:
[1] = target: T1, Lsm2-8 complex (Saccharomyces cerevisiae) (UniProt P38203+P57743+P40070+P40089+Q06406+P53905+P47093); experiment: EMSA; conditions: Bmax 100%, EMSA: 5 nM Cy3-U6, 100 mM KCl, 20% sucrose, 20 mM bis-tris/10 mM HCl, 1 mM EDTA, 1 mM TCEP, 0.01% Triton X-100, 0.1 mg/mL tRNA, 0.01 mg/mL heparin
T1 sequence 1: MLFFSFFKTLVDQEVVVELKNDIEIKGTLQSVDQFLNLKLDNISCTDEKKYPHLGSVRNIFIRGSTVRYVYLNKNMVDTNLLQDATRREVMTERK
T1 sequence 2: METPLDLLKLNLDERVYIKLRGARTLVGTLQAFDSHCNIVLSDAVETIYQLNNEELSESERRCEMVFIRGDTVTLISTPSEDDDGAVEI
T1 sequence 3: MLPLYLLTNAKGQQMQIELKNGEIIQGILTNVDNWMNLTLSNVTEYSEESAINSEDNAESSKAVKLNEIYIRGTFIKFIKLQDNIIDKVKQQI
T1 sequence 4: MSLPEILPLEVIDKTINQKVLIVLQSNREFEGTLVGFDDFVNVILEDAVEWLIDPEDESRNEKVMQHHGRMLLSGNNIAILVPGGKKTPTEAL
T1 sequence 5: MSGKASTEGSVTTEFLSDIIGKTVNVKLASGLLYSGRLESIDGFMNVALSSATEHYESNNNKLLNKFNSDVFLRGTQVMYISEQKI
T1 sequence 6: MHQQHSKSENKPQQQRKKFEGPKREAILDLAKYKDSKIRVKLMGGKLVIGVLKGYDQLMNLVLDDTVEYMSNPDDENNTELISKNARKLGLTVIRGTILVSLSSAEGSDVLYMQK
T1 sequence 7: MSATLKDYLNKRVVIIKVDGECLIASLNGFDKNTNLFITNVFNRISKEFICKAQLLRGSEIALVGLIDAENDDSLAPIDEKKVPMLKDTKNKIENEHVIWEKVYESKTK

[2] = target: T2, Lhp1 (yeast La protein) (Saccharomyces cerevisiae) (UniProt P33399); experiment: EMSA; conditions: Bmax 75%, 2',3'-cis-diol end, EMSA: 5 nM Cy3-U6, 100 mM KCl, 20% sucrose, 20 mM bis-tris/10 mM HCl, 1 mM EDTA, 1 mM TCEP, 0.01% Triton X-100, 0.1 mg/mL tRNA, 0.01 mg/mL heparin
T2 sequence: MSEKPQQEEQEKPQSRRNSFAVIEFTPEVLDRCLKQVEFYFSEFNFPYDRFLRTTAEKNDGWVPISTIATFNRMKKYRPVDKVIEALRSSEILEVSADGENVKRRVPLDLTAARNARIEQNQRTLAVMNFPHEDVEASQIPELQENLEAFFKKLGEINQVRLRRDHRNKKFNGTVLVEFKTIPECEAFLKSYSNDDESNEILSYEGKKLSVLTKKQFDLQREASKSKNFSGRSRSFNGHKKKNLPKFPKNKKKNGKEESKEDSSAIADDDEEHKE

| Substance | Kd ([1]; 2',3'-cis-diol end) [nM] | Kd [2] [nM] | Kd ([1]; 2',3'-cyclic phosphate) [nM] |
| --- | --- | --- | --- |
| U6 1-112 3'OH | 210 | 18 |  |
| U6 1-112+1U 3'OH | 30 | 12 |  |
| U6 1-112+1U>p |  |  | 70 |
